Source: article doi:10.1101/2020.05.20.106609 (bioRxiv, 2020)
Substitutions are numbered along the chain they refer to.

B1: MD17 (scFv, V domains shown)
VH: EVQLLESGGGLVQPGGSLRLSCSASGFTFSTYVMNWVRQAPGKGLEHVSGISSDGGITYYADSVKGRFTISRDNSKNTLYLQMSSLRVEDTAVYYCVKDQDSSSWYDAFDIWGQGTMVTVSS
VL: DIVMTQSPSSLSASVGDRVTITCRASQSISNYLNWYQQKLGKAPKLLTYAASRLQSGVPSRFSASGSGTEFTLTISSLQPEDFATYYCQQSYTTPLTFGGGTKLEIK
B2: MD29 (scFv, V domains shown)
VH: B1 VH with E1Q, V2M, L5V, E6Q, L45P
VL: NIRLTQSPSSLSASVGDRVTITCRATQSISSYLNWYQQKPGKAPNLLIYAASSLQSGVPSRFSGSGSGTDFTLTISSLQPEDFATYYCHQTYTSPYTFGQGTKLEIK
B3: MD62 (scFv, V domains shown)
VH: EVQLVQSGGGLIQPGGSLRLSCAASGVTVSSNYMTWVRQAPGKGLEWVSLIYSGGSTYYADSVKGRFTISRDNSKNTLYLQMNSLRAEDTAVYYCARDLQYYGMDVWGQGTMVTVSS
VL: AIRMTQSPSSVSASVGDRVTITCRASQDIGSWLGWYQQKPGKAPKLLIYAASSLAGGVPSRFSGSGSGTDFTLTISSLQPEDFATYYCQQANSFPLTFGGGTKLEIK
B4: MD47 (scFv, V domains shown)
V domain 1: QMQLVQSGGGLVQPGGSLRLSCAASGFTFSSYAMSWVRQAPGKGLEWVSAISSGGSTYYADSVKGRFTISRDNSKNTLYLQMNSLRAEDTAVYYCAKDLVTAPSYEAFDIWGQGTMITVSS
V domain 2: NFMLTQPPSVSVAPGKTARITCGGNNIGSKSVHWYQQKPGQAPVLVIYYDSDRPSGIPERFSGSNSGNTATLTISRVEAGDEADYYCQVWDSSSHHHVVFGGGTKGTVL

The binders below were run against SARS-CoV-2 spike protein (SARS-CoV-2 Wuhan-Hu-1 (QHD43416), UniProt P0DTC2, stabilised) (assay: ELISA).

Row | Binder | binding result
1 | B1 | binds
2 | B2 | binds
3 | B3 | binds
4 | B4 | binds
